Laboratory results published in US20130251640.

Tests used:
[1] = system: T1, substrate b, Mca-Gly-Pro-Ile-Leu-Phe**Phe-Arg-Leu-Gly-Lys(Dnp)-DArg-CONH2
T1 sequence: GPILFFRLGKR

[2] = system: T2, substrate e, Mca-Ala-Gly-Phe-Ser-Leu**Pro-Ala-Lys(Dnp)-D-Arg-CONH2
T2 sequence: AGFSLPAKR

[3] = system: T3, substrate c, Mca-Gly-Pro-Ile-Leu-Phe**Phe-Arg-Leu-Lys(Dnp)-DArg-CONH2
T3 sequence: GPILFFRLKR

[4] = system: T4, substrate a, Mca-Gly-Ser-Pro-Ala-Phe**Leu-Ala-Lys(Dnp)-DArg-CONH2
T4 sequence: GSPAFLAKR

[5] = system: T5, substrate d, Mca-Ala-Gly-Phe-Ser-Leu**Gly-Pro-Lys(Dnp)-DArg-CONH2
T5 sequence: AGFSLGPKR

**Q.** What does the source list for “Cathepsin D (purchased from Calbiochem, EMD Bioscience)”?
**A.** fluorescence intensity on hydrolysis (FRET substrate) [1]: Compared to substrate b, substrate c shows superior increase in the fluorescence intensity upon hydrolysis by both Cath E and Cath D; Kcat/Km [2]: NM^a; fluorescence intensity on hydrolysis (FRET substrate) [2]: both substrates d and e exhibited similar slow hydrolysis by Cath D; fluorescence intensity on hydrolysis (FRET substrate) [3]: Compared to substrate b, substrate c shows superior increase in the fluorescence intensity upon hydrolysis by both Cath E and Cath D; fluorescence intensity on hydrolysis (FRET substrate) [4]: such leading increase in fluorescence signal with Cath E was observed as well upon incubation with Cath D; fluorescence intensity on hydrolysis (FRET substrate) [5]: both substrates d and e exhibited similar slow hydrolysis by Cath D

**Q.** With “Cathepsin E (purchased from Calbiochem, EMD Bioscience)” as the substance, how does the “fluorescence intensity on hydrolysis (FRET substrate)” value (from here on “fluorescence intensity on hydrolysis”) [1] read?
**A.** Compared to substrate b, substrate c shows superior increase in the fluorescence intensity upon hydrolysis by both Cath E and Cath D

**Q.** And the Kcat [2]?
**A.** 322 S^-1

**Q.** And the Kcat/Km [2]?
**A.** 16.7

**Q.** What about the Km [2] of the same substance?
**A.** 19.4 µM

**Q.** What about the Vmax [2] of the same substance?
**A.** 2.2 µM S^-1

**Q.** And the “fluorescence intensity on hydrolysis” value [2]?
**A.** substrate e was activated by Cath E quickly and reached saturation within 10 minutes

**Q.** And the “fluorescence intensity on hydrolysis” value [3]?
**A.** Compared to substrate b, substrate c shows superior increase in the fluorescence intensity upon hydrolysis by both Cath E and Cath D

**Q.** And the “fluorescence intensity on hydrolysis” value [4]?
**A.** A prominent fluorescence increase of substrate a was observed instantaneously upon incubation with Cath E

**Q.** And the “fluorescence intensity on hydrolysis” value [5]?
**A.** substrate d showed relatively slow hydrolysis and did not reach saturation within the monitored period
